Assay results from patent US20210107972A1 (NEURIMMUNE, published 2021).
Each block holds one binder with its values, some of them ahead of it. No end group written: not given here.

What was measured:
[1] = molecular target: bovine serum albumin (BSA) (bovine, UniProt P02769 25-607); assay: direct ELISA, BSA coated at 10 µg/ml
[2] = molecular target: T1, human islet amyloid polypeptide (human IAPP), IAPP solution containing IAPP fibrils (human, not fully specified; disulfide bridge between cysteine residues 2 and 7 and an amidated C-terminus (as the filing describes human IAPP)); assay: direct ELISA, human IAPP solution (fibrils) coated at 10 µg/ml, comparison with chimeric
T1 construct: The human IAPP solution used for ELISA coating contained IAPP fibrils (electron microscopy); also called hIAPP; amylin
T1 peptide: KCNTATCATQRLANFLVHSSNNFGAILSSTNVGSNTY

[3] = molecular target: T1, human islet amyloid polypeptide (human …); assay: direct ELISA, human IAPP solution (fibrils) coated at 10 µg/ml
[4] = molecular target: T2, pepscan peptide 7: 19-SSNNFGAILS-28 (human); assay: pepscan on nitrocellulose membrane, antibody 1 µg/ml
T2 construct: Spotted on a nitrocellulose membrane
T2 peptide: SSNNFGAILS

[5] = molecular target: T3, pepscan peptide 6: 16-LVHSSNNFGA-25 (human); assay: as above
T3 construct: Spotted on a nitrocellulose membrane
T3 peptide: LVHSSNNFGA

[6] = molecular target: T4, pathological Aβ amyloid (Alzheimer's disease human brain) (human, UniProt P05067 672-713); assay: immunohistochemistry, paraffin-embedded Alzheimer's disease brain sections
T4 construct: also called Aβ deposits

[7] = molecular target: T5, pepscan peptide 1: 1-KCNTATCATQ-10 (human, ends and bridges not checked; cysteine pairing not given here); assay: pepscan on nitrocellulose membrane, antibody 1 µg/ml
T5 construct: Spotted on a nitrocellulose membrane
T5 peptide: KCNTATCATQ

[8] = molecular target: T6, pepscan peptide 2: 4-TATCATQRLA-13 (human); assay: pepscan on nitrocellulose membrane
T6 construct: Spotted on a nitrocellulose membrane
T6 peptide: TATCATQRLA

Sequence of bovine serum albumin (BSA) (P02769 25-607 limits assumed): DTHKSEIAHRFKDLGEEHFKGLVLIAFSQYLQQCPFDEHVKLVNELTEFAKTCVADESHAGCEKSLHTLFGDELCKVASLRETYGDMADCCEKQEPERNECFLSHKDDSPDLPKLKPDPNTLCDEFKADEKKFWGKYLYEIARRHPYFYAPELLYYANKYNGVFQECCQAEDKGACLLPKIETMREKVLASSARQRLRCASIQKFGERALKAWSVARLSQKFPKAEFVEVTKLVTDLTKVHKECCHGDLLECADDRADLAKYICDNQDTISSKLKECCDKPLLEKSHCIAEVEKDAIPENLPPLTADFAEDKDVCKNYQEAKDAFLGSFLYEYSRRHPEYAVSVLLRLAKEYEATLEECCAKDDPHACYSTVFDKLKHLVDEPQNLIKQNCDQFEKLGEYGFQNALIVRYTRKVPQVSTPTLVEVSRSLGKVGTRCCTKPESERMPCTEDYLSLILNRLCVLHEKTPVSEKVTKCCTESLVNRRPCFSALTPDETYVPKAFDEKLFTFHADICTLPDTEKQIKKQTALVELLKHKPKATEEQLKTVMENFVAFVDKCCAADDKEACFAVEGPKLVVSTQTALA

- binding result [1]: no binding
- binding result [7]: binds
- binding result [8]: no binding (tested: 1 µg/ml)
- binding result [6]: no binding (tested: 50 nM)
B6: NI-203.26C11 (antibody, V domains shown)
VH: QVQLQESGPGLVKPSQTLSLTCTVSGGSISSGNYYWTWIRQPAGKGLEWIGHIYSSGTTNYNPSLESRVTISVDTSKNQFSLSLNSVTAADTAVYYCARPLATVPDAFNIWGQGTMVTVSS
VL: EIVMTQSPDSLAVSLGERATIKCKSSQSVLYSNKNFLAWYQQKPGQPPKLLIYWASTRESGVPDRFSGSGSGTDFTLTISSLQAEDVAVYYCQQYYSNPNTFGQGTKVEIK
notes: Recombinant human antibody, kappa light chain, detected with anti-human IgG gamma secondary

- binding result [1]: no binding
B7: mouse chimeric NI-203.26C11 (antibody, V domains shown)
VH: B6 VH
VL: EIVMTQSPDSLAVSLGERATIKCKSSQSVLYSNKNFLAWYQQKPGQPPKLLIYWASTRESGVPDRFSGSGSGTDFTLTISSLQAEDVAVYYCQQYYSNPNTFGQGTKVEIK
notes: Mouse chimeric version of the human antibody (said to comprise the CDR domains of the human antibody)

Second part, the binder before the results:

B1: NI-203.8E3 (antibody, V domains shown)
VH: QVQLVQSGAEVKKPGSSVKVSCKASGGTFSSHTISWVRQAPGQGLEWMGGIIPIFGTANYAQKFQDRVTVTADKSTNTAYMELSSLRPEDTAVYYCAKGELEPRILYYYGMDVWGRGTTVTVSS
VL: DVVMTQSPLSLPVTLGQPASISCRSSQSLVYSDGNTYLNWFHQRPGQSPRRLIYKVSNRDSGVPDRFSGSGSGTDFTLKISRVEAEDVGVYYCMQGSNWPGTFGQGTKVEIK
notes: as for B6
- binding result [1]: no binding

B2: NI-203.19H8 (antibody, V domains shown)
VH: EVQLVESGGGVVQPGTSLRLSCAASGFTFSSYGMHWVRQAPGKGLEWVAIIWYDGSKEYYADSLKGRVTISRDNSENTLYLQLHTLRVEDTAVYFCARTIASATVDHGMDVWGQGTLVTVSS
VL: DVVMTQSPSSVSASVGDRVTITCRASHDISTWLAWYQQRPGKAPNLLIFGASRLQSGVSPRFSGSGSGTDFTLTISSLQPEDFATYYCQQTNNFPPTFGQGTRLEIK
notes: as for B6
- EC50 [2]: 22.9 nM
- EC50 [3]: 22 nM
- binding result [1]: no binding
- binding result [4]: binds
- binding result [5]: binds
- binding result [6]: no binding (tested: 50 nM)

B3: mouse chimeric NI-203.19H8 (antibody, V domains shown)
VH: B2 VH
VL: B2 VL
notes: as for B7
- EC50 [3]: 23.9 nM
- binding result [1]: no binding

B4: NI-203.9A2 (antibody, V domains shown)
VH: EVQLVESGGGLVQPGGSLRLSCAASGFTFSTFAMSWVRQAPGKGLEWVSTISGSGDNTYYADSLKGRFTISRDNSKNTLYLQVNSLRPEDTAVYYCAKSPSSLLATYFDYWGQGTLVTVSS
VL: EIVLTQSPSTLSASVGDRVTITCRASESINSWLAWYQQKPGKGPKLLIYKASSLQSGVPSRFSGSGSGTEFTLTISSLQPDDFATYYCQQHNSYWTFGQGTKVEIK
notes: as for B6
- binding result [1]: no binding
- binding result [6]: no binding (tested: 50 nM)

B5: mouse chimeric NI-203.9A2 (antibody, V domains shown)
VH: B4 VH
VL: B4 VL
notes: as for B7
- binding result [1]: no binding
